For 3 molecules, Kd results are on record in publication PMC4227767, “Dye label interference with RNA modification reveals 5-fluorouridine as non-covalent inhibitor”.

What is called Kd is the constant that tells how readily two partners part at equilibrium.

Data set [1] deals with T1, TruB (tmTruB), tRNA pseudouridine-55 synthase (Thermotoga maritima, UniProt Q9WZW0 1-309).
T1 sequence: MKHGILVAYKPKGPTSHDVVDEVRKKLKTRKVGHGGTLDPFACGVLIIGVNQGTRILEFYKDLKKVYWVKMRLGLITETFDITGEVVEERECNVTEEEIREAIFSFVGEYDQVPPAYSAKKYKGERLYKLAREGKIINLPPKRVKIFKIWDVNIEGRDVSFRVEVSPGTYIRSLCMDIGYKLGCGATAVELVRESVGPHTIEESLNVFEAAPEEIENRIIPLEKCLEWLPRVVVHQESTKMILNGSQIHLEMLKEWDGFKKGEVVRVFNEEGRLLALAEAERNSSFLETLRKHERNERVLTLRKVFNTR
Description: fluorescence titration (spectral shifts, lifetime/anisotropy); average over three titration curves; 200 nM tRNA; 1x MST buffer (composition not in material); tRNA folded 4 min 75 C in water then cooled in buffer; MST at 25 C, 50 nM tRNA; fluorescence at 200 nM tRNA; SDS-PAGE complexes formed at 25 or 70 C. The following applies: protein: recombinant, tRNA fold.

For data set [2], the target named is T1, TruB (tmTruB), tRNA pseudouridine-55 …. Put plainly: MST; one of three runs 1 month apart; unit cut off in the material (nM assumed); 1x MST buffer (composition not in material); tRNA folded 4 min 75 C in water then cooled in buffer; MST at 25 C, 50 nM tRNA; fluorescence at 200 nM tRNA; SDS-PAGE complexes formed at 25 or 70 C. The following applies: protein: recombinant; label: Cy5 at U33 (internal); tRNA fold.

B1: C49-5FU55-tRNA (Cy5 at C49) (structured_RNA)
RNA: GCGGAUUUAGCUCAGUUGGGAGAGCGCCAGACUGAAGAUCUGGAGGUCCUGUGUUCGAUCCACAGAAUUCGCACCA
modifications: 5-fluorouridine at position 55; 5-aminohexyl-3-acrylimido-deoxycytidine at C49
In the case of B1, in data set [1] (label: Cy5 at C49 (internal)), the Kd is 124 nM.

B2: U33-5FU55-tRNA (Cy5 at U33) (structured_RNA)
RNA: B1 RNA
modifications: 5-fluorouridine at position 55; 5-aminohexyl-3-acrylimido-uridine at U33
Consider B2, for which the Kd is 3.7 nM in data set [1] (label: Cy5 at U33 (internal)) and 37.3 nM in data set [2].

B3: C49-U55-tRNA (Cy5 at C49) (structured_RNA)
RNA: B1 RNA
modifications: 5-aminohexyl-3-acrylimido-deoxycytidine at C49
As for B3, the Kd in data set [1] (label: Cy5 at C49 (internal)) is 226 nM.
